Test results published in the nanobody polyreactivity screen of Harvey et al. (2022).

Assay: yeast display, Sf9 membrane polyspecificity reagent, FACS + sequencing; frameworks hold sequencing errors
Method in brief: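 Using colony PCR, genes from sorted yeast display clones were amplified, then sequenced on MiSeq at 2 × 250 and filtered by CDR length. The clones had been stained with 10% biotinylated, detergent-solubilized Sf9 membrane reagent for 1 hour at 4 °C and sorted by FACS into low and high (top ~1%) gates on anti-HA and streptavidin fluorescence. Polyreactivity labels come from the gate of origin.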

Row | Sequence | polyreactivity (PSR sort gate)
1 | QVQLVESGGGLVQAGGSLRLSCAASGSIFYHNAMGRYRQAPGKERELVAAITGSGGSTYYADAVKGRFTISRDKAKNTVYFQMNSLKPEDTAVYDCAADGYTKWWISWGYDYWGQGTQVTVSS | low polyreactivity
2 | QVHLVESGGGLVQAGGSLRISCAASGSTFHGYAMGWYRQEPGKEMELVAAITSGDSTNYADSVKGRFTISRDNAKNTVYLQMNSLKPEDTAVYFCNAEGDSLLTGYWGYPPYWDTYDNWGQGTQVTVSS | low polyreactivity
3 | QVQLVESGGGLVQAGGSLRLSCAASGSIFFSYAMGWYIQAPGKERELVAAITSSVDSTYYADSVKGRFTISRDNAKNTVYLQMNSLKPEDTAVYYCAARYRSGYYRYDYWGQGTQVTVSS | low polyreactivity
4 | QVQLVESGGGLVQAGGSLRLSCAASGFTFQGNVMGWYRQAPGKERELVAVITSGGSTYYADSVKGRFTISRDNAKNTVYLQMNSLKPEDTAVYYCAARAYTWGPAGQVEKYYYWGQGTQVTVSS | high polyreactivity
5 | QVQLVESGGGLVQAGGSLRLSCAASGSTFSYNAMGWYRQAPGKERELVAAISWRGGRTYYADSVKGRFTISRDNAKNTVYLQMYSLKPEDTAVYYCAAAYAAYSRYRYDYWGQGTQVTVSS | high polyreactivity
6 | QFQLVESGGGLVQAGGILRLSCAASGLIFQAYTMGWYRQAPGKEREFVAAISKSGGSTYYADSVKGRFTISRDNAKNTVYLQMNSLKPEDTAVYYCAAVDWRRPGYDYWGQGTQVTVSS | high polyreactivity
7 | QVQLVESGGGLVQAGVSLRLSCAASGRTFRSNAMGWYRQSPGKERELVAAITASGGNTYYADSVKGRFTISRDNAKNTVYLQMNSLKPEDTAVYYCAAVSRYNYGTNPYYYWGQGTQVTVSS | high polyreactivity
8 | QVQLVESGGGLVQAGGSLRLSCAASVIIFSYNAMGWYRQAPGKERELVAAISYSGGSTYYADSVKGRFTISRDNAKNTVYLQMNSLKPEDTAVYYCAAEKYLGELDYWGQGTQVTVSS | low polyreactivity
9 | QVQLVETGGCLVQAGGSLRLSCAASGFTFRGYAMGWYRQAPGKERELVAAITAGGGSTSYADSVKGRFTISRDNAKNTVYLLMNSLKPEDTAVYYCAKDRYYGYFRSRSDYWGQGTQVTVSS | high polyreactivity
10 | QVQLVESGGRLVQAGGSLRLTCAASGRIFSVNAMGWYRQAPGKERELVAAITPGASTNYADSVKGRFTISRDNAKNTVYLQMTSLKPEDTAVYYCAAGWVSFEDWVLGSYYEYDYWGQGTHVTVSS | low polyreactivity
11 | QVQLVESGGGLVQAGGSLRLSCAASGRTFRNNAMGWYRQAPGKERELVASISKSGGRTYYADSVKGRFTISRDNAKNTVYLQMNSLKPEDTAVYYCAAYRIHVYPAGLSWQYYYELDYWGQGTQVTVSS | high polyreactivity
12 | QVQLVESGGGLVQAGGSLRLSCAASGFIFIYNAMGWYRQAPGKEREMVAAITGSDGGTFYADSVKGRFTISRDNAKNTVYLQLNSLKPEDTAVYYCNADNGSRQSRDGYESWGQGTQVTVSS | low polyreactivity
13 | QLRLVESGGGLVQAGGSLRLSCAAYGFIFRNNAMGWYRQAPGKERELVAVISFSGGSTYYADSVKGRFTISRDNAKHTVYLQMNSLKPEDTAVYYCAADDYQVQYDYWGQGTQVTVSS | low polyreactivity
14 | QVQLVESGGGLVQAGGSLRLSCAASGRTFTRYSMGWYRQAPGKERELVAAISRSGGSTYYADSVKGRFTISRDNAKNTVYLQMNSLKPEDTAVYYCAADVYRDLAYDYWGQGTQVTVSS | high polyreactivity
15 | QVQLVESGGGLVQAGGSLRLSCAASGFTFDENAMGWYRQAPGINYSGASTYYADSVKGRFTISRDNAQNSVYLQMNSLKPEDTAVYYCAAEVVAQMNYWGQGTQVTVSS | low polyreactivity
16 | QVQLVESGGGLVQAGGSLRLSCAASGLTFYYYAMGWYRQAPGKERELVATITSSGARTYYADSVKGRFTISRDNAKNTVYLQMNSLKPEDTEVYYCAADYGIWQRGSHYWDMDYWGQGTQVTVSS | high polyreactivity
17 | QVQHVESGGGLVQAGGSLRLSCAASGFIFPYYDMGWYRQAPGKEREFVAAITKSGGRTYYADSVKGRFTISRDNAKNPVYLQMNSLKPEDTAVYYCAAEPDTYWYTYDYWGQGTQVTVSS | low polyreactivity
18 | QVQLVESGGGLVQAGGSLRLSCAASGFIFNYYAMGWYRQAPGKEREFVAAITWRGGSTNYADSVKGRFTISRDNAKNTVYLQMNSLKPEDTAVYYCAAYSVWGGSYLALDYWGQGTQVTVSS | low polyreactivity
19 | QVQLLESGGGLVQAGGSLRLSCAASASTFWFYAMGWYIQAPGKERELVAAISSTGSTNYADSVKGRFTISRDNAKNTVYLQMNSLKPEDTAVYYCATQEGPHKLDPRGYYWGQGTQVTVSS | low polyreactivity
20 | QVQLVESGGGLVQARGSLRLSCAASGFTFDTYAMGSYRQAPGKARELVAVLSRGGSTYYADSVKGRFTISRDKAKNTVYLQMNSLKPEDPAVYFCNAKHKQGRKQFKLGAGYYWGQGTQVTVSS | high polyreactivity
21 | QVQLVESGGGLVQAGGILRLSCAASGRTFSVNAMGWYRQAPGKERELVAAITRRGGSTYYADSVKGRFTISRDYAKNTVYLQMKSLKPEDTAVYYCAAEFVTYYSSSKRAYYYWGQGTQVTVSS | high polyreactivity
22 | QVQLVESGGGLVQAGGSLRLSCAASGSNFRRNAMGWYRQAPGKERELVAAISSNGGSTYYADSVKGRFTISRDNAKNTVYLQLNSLKPEDSAVYYCNALGRVRYSPRYGYDYWGQGTQVTVSS | high polyreactivity

Row | Sequence | polyreactivity (PSR sort gate)
23 | QVQLVESGGGLVQAGGSLRLSCAASGSIYDRYVMGWYRQAPGKERELVAAISKSGGNTYYADSVKGRFTISRDNAKNTVYLQMNSLKPEDTAVYYCNARSGRYYLGYGYWGQGTQVTVSS | high polyreactivity
24 | QVQLEESGGGLVQAAGSLRLSSAASGSTFRYYAMGWYRQAPGKDRELVAAITRSRGSTYYADSVKGRFTISRDKAKNHVYLQMNSVKQEDTEVYYCAARGQTGYYSGVGYWGQGTQVTVSS | high polyreactivity
25 | QVQLGESGGGLVQAGGSLRLSCAASGSIFRGYTMGWYRQAPGKERELVAGISFSGTRTYYADSVKGRFTISRDNAKNTVYLQMNSLKPEDTAVYYCAAVSPYGSQYGYWGQGTQVTVSS | high polyreactivity
26 | QVQLVESGGGLVQAGGSLRLSCAASGFTFYHNTMGWYRQAPGKEREFVATINFIGGSTYYADSVKGRFTISRDNAKNTVYLQMNSLKPEDTAVYYCNARSRYLYFLRFDYWGQGTQVTVSS | high polyreactivity
27 | QVQLQESGGGLVQAGGSLRLSCAASGTITQEDWMGWYRQAPGKEREFVAAIGLGSNTNYADSLKGRFTISRDNAKNTVYLQMNSLKPEDTGVYYCAVSVWQYSDHVYRGQGTQVTVSS | low polyreactivity
28 | QVQLVESGGGLVQAGGSLRLSCAASGSNFNIKAIGWYRQAPGKERELVATIPSGGTTSSADSVNGRFTISRDNAKNTVYLQMNSLKPEDTAVYYCYAEIYPIVKAGRHHRRRYDYWGQATQVTVSS | low polyreactivity
29 | QVQLVESGGGLVQAGGSLRLSCAASGSNFIGYAMGWYRQEPGKERELVAAISNSGGRTYYADSVKGRFTISRDNAKNTVYLQMNSLKPEDTAVYYCNVAYRIPYRMDYWGQGTQVTVSS | high polyreactivity
30 | QVQLVESGGGLVQAGGSLRLSCAASGRTFGSNAMGWYRQAPGKERELVAAITKSGGGTYYADSVKGRFTISRDNAKNTVYLQMNSLKPEDTAVYYCAARRYARSGGALYPYDYWGQGSQVTVSS | high polyreactivity
31 | QVQLVESGGGLVQAGGSLLLNCAASGITFAGNAMGWYRQAPGKERELLAAISGSGGSTSYADSVKGRFTISRDDAKNTVYLQMNSLKPEDTAVYYGSAASRLYHWHALFGSWGQGTQVTVSS | low polyreactivity
32 | QVQLVESGGGLVQAGGSLRLSCAASGSIFATNAMGWYRQAPGKERELVAAISRSGASTYYADSVKGRFTISRDNAKNTVYLQMNSLKPEDPAVYYCNKVLYRDAYHSYGFDYWGQGTQVTVSS | high polyreactivity
33 | QVQLVESGGGLVQAGGSLRLSCAASGFTFDTNAMGWYRLAPGKERELVAAISRIGGRPYADSVKGRFTISRDNAKNTVYLQMNSLKPEDTAVYYGAADTTGYPYGYDSWGQGTQVTVSS | low polyreactivity
34 | QVQLVESGGGLVQAGGSLRLSCAASGSIFAYYAMGMYRQEPGKERELVAVIRSGGSTYYADSVKGRFTISRDNAKNTVYLQMNSLKPEDTAVYYCAARSYRPTRGDYWGQGTQVTVSS | high polyreactivity
35 | QVQLEESGGGLVQAGGSLRLICAASGLTFYSYAMGWYRQAPGKERELVATIRWSGGSTYYADSVKGRFTISRDNANNTVYLQMNSLKPEDTAVYYCNKRRYPVGSLFDYWGQGTQVTVSS | low polyreactivity
36 | QVQLVESGGGLVQAGGSLRLSCAASGRIFIRYAMGSYRQAPGKERELVAAITYSGGRTYYADSVKGRFTISRDNAKNTVYLQMNSLKPEDTAVYYCAADAPYGEDYWGQGTQVTVSS | high polyreactivity
37 | QVQLVESGGGLVQAGGSLRLSCAASGFTFRNYAMGWYRQAPGKERELVAVIDWSGGRTYYADSVKGRFTISRDNAKNTVYLQMNSLKPEDTAVYYCNAVYGYRAYGGYGYWGQGTQVTVSS | high polyreactivity
38 | QVQLVESGGGLVQAGGSLRLSCAASGRISLRILWDGIDRRLGKKGSWLPLLTNTGSTNYADSVKGRFTISRDNAKNTVYLQMNSLKPEDTAVYDCNADPTGGSSYPAYFEYDYWGQGTQVTVSS | low polyreactivity
39 | QVQLVESGGGLVQAGGSLRLSCAASGSTFAGNAMGWYRQAPGKERELVAAIDSSTGSTYYADSVKGRFTISRDNAKNTVYLQMNSLKPEDTAVYYCNNTSFLVKLDYWGQGTQVTVSS | low polyreactivity
40 | QVQLVESGGGLVQAGGSLRLSCAASGSTFDKYVMGWYRQAPGKERELVAVIDWRDGTTYYADSVKGRFTISRDNAKNTVYLQMNSLKPEDTAVYYCNADNDNYGDVYPYYTAGYGYWGQGTQVTVSS | low polyreactivity
41 | QVQLVESGGGLVQAGGSLRLSCAASGRIFTSNTMGWYRQAPGKESELVAAITCSGGSMYYADSVKGRFTISRDNAKNTVYLQMNSLKPEDTEVYDCAADTLGYHYWYDYWGQGTQVTVSS | low polyreactivity
42 | QVQLVESGGGLVQAGGSLRLSCAASGSTFYPYAMGWYRQATGKERELVAGISWSGGSTYYADSVKGRFTFSRDNAKNTVYLQMNSLNPEDTAVYYCAVDVYWSVIYDYWGQGTQVTVSS | low polyreactivity
43 | QVQLVESGGGLVQAGGSLRLSCAASGRTLRIYAMGWYRQAPGKERELVAAITSSGRTNYADSVKGRFTISRDNAKNTVYLQMNSLKPEDTAVYYCSADYYYYVAGVHYDYWGQGTQVTVSS | low polyreactivity
